Like-named read-outs stand apart in the source and are kept apart here.
Key:
[1] = biological target: T1, human CD8 on cells (CD8-overexpressing HEK293T cells, SupT1, HPB-ALL, human T cells, transfected HEK293 of … (human, UniProt P01732 22-235)); assay: flow cytometry on CD8-overexpressing HEK293T cells, non-linear fit of normalized gMFI
T1 construct: whole, on cells; also called cell surface CD8
Description: To obtain the results shown in FIG. 3A, that determined EC₅₀ values for antigen-specific binding, CD8-overexpressing HEK293T cells were dissociated in Versine solution (PBS buffer at pH 7.4 supplemented with 0.5 mM EDTA), and 2×10⁵ total cells were transferred to a V-bottom 96 well culture plate (Corning). Cells were washed twice with Cell Staining buffer (#420201, Biolegend). Each anti-CD8α antibody with human IgG1 isotype and Fc-silencing mutations L234A, L235A and P329A was diluted in four-fold antibody titration series from 100 μg/mL to 6.1 ng/ml into Cell Staining buffer. eFluor 780 Fixable Viability dye (eBioscience) was also included during antibody solutions at a 1:4000 dilution. Cells were stained with each diluted antibody solution for 30 minutes on ice. Cells were then washed three times with Cell Staining buffer and primary antibody binding was detected by staining with anti-human Fc BV421 conjugate antibody (#410704, Biolegend) at 1:100 dilution for 30 minutes on ice. After staining with the secondary detection antibody, cells were washed three times with Cell Staining buffer, fixed in FluoroFix buffer (Biolegend) and kept at 4° C. in the dark until analysis. Flow cytometry analysis on each sample was performed on an Agilent NovoCyte flow cytometer. Flow cytometry data was analyzed by Flowjo 10 (Becton, Dickinson & Company) to measure the geometric median fluorescence intensity (gMFI) of the on-cell binding from each antibody. The gMFI values were normalized with the gMFI measured in the sample stained with only the secondary detection antibody and plotted against the concentration of the added antibodies. The binding curves were constructed using the Graphpad Prism software, and EC₅₀ values were determined by non-linear curve fitting.

[2] = biological target: T2, human CD8αα homodimer, recombinant protein (Acro Biosystems) (human, UniProt P01732 22-182); assay: BLI steady state, whole hIgG1-LALAPA antibody on CD8α-His (Ni-NTA sensor), 30 °C
T2 construct: also called CD8αα antigen; biotinylated CD8α recombinant protein (CDA-H82E3)
T2 sequence (P01732 22-182 limits assumed): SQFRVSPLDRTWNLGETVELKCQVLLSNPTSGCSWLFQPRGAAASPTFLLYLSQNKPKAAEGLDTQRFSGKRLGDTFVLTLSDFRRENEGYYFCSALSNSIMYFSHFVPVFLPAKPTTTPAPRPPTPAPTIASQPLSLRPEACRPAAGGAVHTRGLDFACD
Description: (§1) To assess affinity of whole antibodies, steady state analysis was used as the bivalent nature of both whole antibody and CD8α complicates kinetic analysis. 50 nM CD8α-His (that is, CD8α with a C-terminal oligohistidine tag; Acro) was immobilized on Ni-NTA sensor probes. Binding was analyzed with a three-fold antibody dilutions series: 60 nM, 20 nM, 6.67 nM, 2.22 nM, 0.74 nM, and 0.25 nM. The antigen-loaded sensors were incubated in the diluted solutions to capture the whole IgG antibody for 300 s to record the association phase. Sensors were incubated in the kinetic buffer for 900 s to record the dissociation phase. The spin speed was 1000 rpm for all steps except the antigen loading step which was 400 rpm to control density of the antigen. The temperature of the performed assays was at 30° C. during the association and dissociation phases. The sensor data were baseline subtracted and further analyzed in GatorOne software (version 2.10) to determine the equilibrium dissociation constants (KD) of the antibodies by fitting the signals of the steady states to the 1:1 binding model.

[3] = biological target: T2, human CD8αα homodimer, recombinant …; assay: as above; remark: listed apart in the source
Description: as §1

T1 sequence (P01732 22-235): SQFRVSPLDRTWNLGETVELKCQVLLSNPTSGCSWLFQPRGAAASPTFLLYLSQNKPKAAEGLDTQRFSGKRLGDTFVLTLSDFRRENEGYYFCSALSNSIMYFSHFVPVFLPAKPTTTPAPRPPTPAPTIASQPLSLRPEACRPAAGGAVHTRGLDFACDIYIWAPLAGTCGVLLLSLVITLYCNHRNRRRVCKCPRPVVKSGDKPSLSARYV

Row | Binder | EC50 [1] [nM] | Kd [2] [nM] | Kd [3] [nM]
1 | CBD1036-hIgG1-LALAPA (antibody, V domains shown, also called h1017-H3/L3 whole antibody) VH: QVQLVQSGAEVKKPGASVKISCKASRYTFTDYNLHWVRQAPGQGLEWIGFIYPYNGGTGYAQKFQGRATLTVDTSTSTAYMELSSLRSEDTAVYYCARDHRYNEGVSFDYWGQGTTLTVSS VL: DIQLTQSPSSLSASVGDRATITCRASESVDGFGNSFMNWYQQKPGKAPKLLIYLASNLESGVPSRFSGSGSRTDFTLTISSVQPEDFATYYCQQNNEDPYTFGQGTKLEIKR | 2.69 | 5.15 | –
2 | CBD1049 (antibody, human IgG1, kappa, L234A L235A, V domains shown, also called h1017-H10/L5 whole antibody hIgG1-LALAPA) VH: QVQLVQSGAEVKKPGASVKVSCKASRYTFTDYNLHWVRQAPGQGLEWIGFIYPYNGGTGYAQKFQGRVTLTVDYSTSTAYMELSSLRSEDTAVYYCARDHRYNEGVSFDYWGQGTLVTVSS VL: EIVLTQSPGTLSLSPGERATLSCRASESVDGFGNSFMNWYQQKPGQAPRLLIYLASNLESGVPARFSGSGSGTDFTLTISRLEPEDFAVYYCQQNNEDPYTFGQGTKVEIKR | – | – | 3
3 | CBD1041 (antibody, human IgG1, kappa, L234A L235A, V domains shown, also called h1017-H6/L4 whole antibody hIgG1-LALAPA) VH: QVQLVQSGAEVKKPGASVKVSCKASRYTFTDYNLHWVRQAPGQGLEWMGFIYPYNGGTNYAQKFQGRVTITADTSTSTAYMELSSLRSEDTAVYYCARDHRYNEGVSFDYWGQGTLVTVSS VL: EIVLTQSPGTLSLSPGERATLSCRASESVDGFGNSFMNWYQQKPGQAPRLLIYLASNLESGIPARFSGSGSGTDFTLTISRLEPEDFAVYYCQQNNEDPYTFGQGTKVEIKR | – | – | 10.2
4 | CBD1038-hIgG1-LALAPA (antibody, V domains shown, also called h1017-H4/L3 whole antibody) VH: QVQLVQSGAEVKKPGASVKVSCKASRYTFTDYNLHWVRQAPGQGLEWMGFIYPYNGGTGYAQKFQGRVTMTVDYSTSTAYMELSSLRSEDTAVYYCARDHRYNEGVSFDYWGQGTTVTVSS VL: DIQLTQSPSSLSASVGDRATITCRASESVDGFGNSFMNWYQQKPGKAPKLLIYLASNLESGVPSRFSGSGSRTDFTLTISSVQPEDFATYYCQQNNEDPYTFGQGTKLEIKR | 2.57 | 4.74 | –
5 | CBD1045 (antibody, human IgG1, kappa, L234A L235A, V domains shown, also called h1017-H8/L5 whole antibody hIgG1-LALAPA) VH: QVQLVQSGAEVKKPGASVKVSCKASRYTFTDYNLHWVRQAPGQGLEWIGFIYPYNGGTGYAQKFKGRVTITADTSTSTAYMELSSLRSEDTAVYYCARDHRYNEGVSFDYWGQGTLVTVSS VL: EIVLTQSPGTLSLSPGERATLSCRASESVDGFGNSFMNWYQQKPGQAPRLLIYLASNLESGVPARFSGSGSGTDFTLTISRLEPEDFAVYYCQQNNEDPYTFGQGTKVEIKR | – | – | 4.18
6 | CBD1042 (antibody, human IgG1, kappa, L234A L235A, V domains shown, also called h1017-H7/L4 whole antibody hIgG1-LALAPA) VH: QVQLVQSGAEVKKPGASVKVSCKASRYTFTDYNLHWVRQAPGQGLEWIGFIYPYNGGTGYAQKFQGRVTITADTSTSTAYMELSSLRSEDTAVYYCARDHRYNEGVSFDYWGQGTLVTVSS VL: EIVLTQSPGTLSLSPGERATLSCRASESVDGFGNSFMNWYQQKPGQAPRLLIYLASNLESGIPARFSGSGSGTDFTLTISRLEPEDFAVYYCQQNNEDPYTFGQGTKVEIKR | – | – | 3.59
7 | CBD1037-hIgG1-LALAPA (antibody, V domains shown, also called h1017-H4/L2 whole antibody) VH: QVQLVQSGAEVKKPGASVKVSCKASRYTFTDYNLHWVRQAPGQGLEWMGFIYPYNGGTGYAQKFQGRVTMTVDYSTSTAYMELSSLRSEDTAVYYCARDHRYNEGVSFDYWGQGTTVTVSS VL: DIQLTQSPSSLSASVGDRATITCRASESVDGFGNSFMNWYQQKPGKAPKLLIYLASNLESGVPSRFSGSGSGTDFTLTISSVQPEDFATYYCQQNNEDPYTFGQGTKLEIKR | 2.42 | 2.32 | –
8 | CBD1044 (antibody, human IgG1, kappa, L234A L235A, V domains shown, also called h1017-H7/L6 whole antibody hIgG1-LALAPA) VH: QVQLVQSGAEVKKPGASVKVSCKASRYTFTDYNLHWVRQAPGQGLEWIGFIYPYNGGTGYAQKFQGRVTITADTSTSTAYMELSSLRSEDTAVYYCARDHRYNEGVSFDYWGQGTLVTVSS VL: EIVLTQSPGTLSLSPGERATLSCRASESVDGFGNSFMNWYQQKPGQAPRLLIYLASNLESGVPARFSGSGSRTDFTLTISRLEPEDFAVYYCQQNNEDPYTFGQGTKVEIKR | – | – | 8.65
9 | CBD1048 (antibody, human IgG1, kappa, L234A L235A, V domains shown, also called h1017-H9/L6 whole antibody hIgG1-LALAPA) VH: QVQLVQSGAEVKKPGASVKVSCKASRYTFTDYNLHWVRQAPGQGLEWMGFIYPYNGGTGYAQKFQGRVTLTVDYSTSTAYMELSSLRSEDTAVYYCARDHRYNEGVSFDYWGQGTLVTVSS VL: EIVLTQSPGTLSLSPGERATLSCRASESVDGFGNSFMNWYQQKPGQAPRLLIYLASNLESGVPARFSGSGSRTDFTLTISRLEPEDFAVYYCQQNNEDPYTFGQGTKVEIKR | – | – | 5.45
10 | CBD1050 (antibody, human IgG1, kappa, L234A L235A, V domains shown, also called h1017-H10/L6 whole antibody hIgG1-LALAPA) VH: QVQLVQSGAEVKKPGASVKVSCKASRYTFTDYNLHWVRQAPGQGLEWIGFIYPYNGGTGYAQKFQGRVTLTVDYSTSTAYMELSSLRSEDTAVYYCARDHRYNEGVSFDYWGQGTLVTVSS VL: EIVLTQSPGTLSLSPGERATLSCRASESVDGFGNSFMNWYQQKPGQAPRLLIYLASNLESGVPARFSGSGSRTDFTLTISRLEPEDFAVYYCQQNNEDPYTFGQGTKVEIKR | – | – | 6.41
11 | CBD1046 (antibody, human IgG1, kappa, L234A L235A, V domains shown, also called h1017-H8/L6 whole antibody hIgG1-LALAPA) VH: QVQLVQSGAEVKKPGASVKVSCKASRYTFTDYNLHWVRQAPGQGLEWIGFIYPYNGGTGYAQKFKGRVTITADTSTSTAYMELSSLRSEDTAVYYCARDHRYNEGVSFDYWGQGTLVTVSS VL: EIVLTQSPGTLSLSPGERATLSCRASESVDGFGNSFMNWYQQKPGQAPRLLIYLASNLESGVPARFSGSGSRTDFTLTISRLEPEDFAVYYCQQNNEDPYTFGQGTKVEIKR | – | – | 9.78
12 | CBD1047 (antibody, human IgG1, kappa, L234A L235A, V domains shown, also called h1017-H9/L5 whole antibody hIgG1-LALAPA) VH: QVQLVQSGAEVKKPGASVKVSCKASRYTFTDYNLHWVRQAPGQGLEWMGFIYPYNGGTGYAQKFQGRVTLTVDYSTSTAYMELSSLRSEDTAVYYCARDHRYNEGVSFDYWGQGTLVTVSS VL: EIVLTQSPGTLSLSPGERATLSCRASESVDGFGNSFMNWYQQKPGQAPRLLIYLASNLESGVPARFSGSGSGTDFTLTISRLEPEDFAVYYCQQNNEDPYTFGQGTKVEIKR | – | – | 2.72
